Results as given in FireProtDB (doi:10.1074/jbc.274.53.37533).

Conditions: Pseudomonas aeruginosa (strain ATCC 15692 / DSM 22644 / CIP 104116 / JCM 14847 / LMG 12228 / 1C / PRS 101 / PAO1), CD, HCl, whole UniProt chain shown

B1: Cytochrome c-551 wild type, P00099 (protein)
chain: MKPYALLSLLATGTLLAQGAWAEDPEVLFKNKGCVACHAIDTKMVGPAYKDVAAKFAGQAGAEAELAQRIKNGSQGVWGPIPMPPNAVSDDEAQTLAKWVLSQK
For B1, the denaturant m value (pH 5, 25 °C, GdnHCl) was 2.17 kcal/mol/M, the “denaturant midpoint (higher = more stable)” value (pH 5, 25 °C, GdnHCl) was 2.25 M and the Tm (pH 5, Thermal) was 50.4 °C. For the same protein, the “unfolding enthalpy (van 't Hoff)” value (pH 5, Thermal) was 37.6 kcal/mol.
